The values that follow come from patent US20250339558A1.

In this assay the target is CD20 (UniProt P11836). The assay is described as follows: cell-based or functional assay.
UniProt P11836, sequence (P11836 whole entry): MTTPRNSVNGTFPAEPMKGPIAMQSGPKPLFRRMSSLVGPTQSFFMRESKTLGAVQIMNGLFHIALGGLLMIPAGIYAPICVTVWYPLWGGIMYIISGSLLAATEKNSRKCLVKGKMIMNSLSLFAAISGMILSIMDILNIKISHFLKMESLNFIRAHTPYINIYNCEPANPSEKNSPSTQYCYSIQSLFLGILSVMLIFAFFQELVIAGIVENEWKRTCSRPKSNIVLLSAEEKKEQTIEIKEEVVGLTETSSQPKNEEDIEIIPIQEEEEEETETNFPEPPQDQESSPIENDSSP

Consider Rituximab (antibody), for which the CDC Depletion Efficiency (complement-dependent cytotoxicity killing) is 60%.
